Measured values from the DeepSol protein solubility set.

experiment: soluble on expression in E. coli; label from the status in PepcDB or PDB records

Row | Sequence | soluble on expression in E. coli
1 | MAGMFQDLLYLNLIGAVRAITAAQGIKIRISGEENVPESGGAVVVVNHTGYLDFIYAGYPFRKFRRYIRYMAKGDVFKHPVAGPLLREMRHIPVDRIDGTAAFDQAVDMLKKGELVGIFPEATISRSFEIKTLRPGAVRMAQAAGVPIIMVMVVGSQRVWTKGQKKNLIHPGSPIHMKVFPAWYPEGDANEATQELRRRMITGLEEVWSDYQAEEPIVPGALWVPARLGGGAPTFDEAQAEDEKVEQERRRVRVLTEEIAQLTERIKQATKAGASAVDAARHRVEDVLHGEVPAKADAGKALSVLKDTVDEFVEEVVSSAKEGKDRVMDAGEQLRRSVADLYGQAVTASQVNPVVVQATAQVSMLLDRLPQRKDAPKVELPRVLVLSVDGAVAAYPEVTLSPSVLSQVAALSQQHTVVLTTISGMDRVVALARQVAQESGADVCVSASAGAVAATVSDTDVSVLHECVVSDELRAAVQECVDSLGLDVEWKGAHHGVVSGLGADPDLWQELSQVVRVVPLPGEPDRCVIVSPEASVEAAVQTCVGDVWDEVLVCAADASEAGALARAGHRVAVVSAPVVVLREAAQWCDRPDKDGVINFLDKHFITPESV | not soluble
2 | MSLDYDLLIKNGQTVNGMPVEIAIKEKKIAAVAATISGSAKETIHLEPGTYVSAGWIDDHVHCFEKMALYYDYPDEIGVKKGVTTVIDAGTTGAENIHEFYDLAQQAKTNVFGLVNISKWGIVAQDELADLSKVQASLVKKAIQELPDFVVGIKARMSRTVIGDNGITPLELAKQIQQENQEIPLMVHIGSAPPHLDEILALMEKGDVLTHCFNGKENGILDQATDKIKDFAWQAYNKGVVFDIGHGTDSFNFHVAETALREGMKAASISTDIYIRNRENGPVYDLATTMEKLRVVGYDWPEIIEKVTKAPAENFHLTQKGTLEIGKDADLTIFTIQAEEKTLTDSNGLTRVAKEQIRPIKTIIGGQIYDNEGHHHHHH | soluble
3 | MRFTKTLFTTALFGASVFSFQSTAWADTLEQQFQQGSEATTRGDYQTTFKFLLPLAEQGNALAQMMLGVMYAKGQGVKQDDVEAVKWYRKAAEQGYADAQAMLGFSYLLGQSGVQVNKSLAKEWFGKACDNGDQNGCEYYGKLNRGEL | not soluble
4 | MAHHHHHHMRPKKSAFKLAQRGERHLLHGNSEVSNFYGISESGFSNSRPPPYLLRFDKCNDIIAYTNEVDSECLKQIKNLAMLDIIKGHVTILPDVHLGKGIIIGSVFLTKDFIIPNGVGVDIGCGVLCVKINKLKKKNLREHIINNIYKKIKRNVPLSFDSHEKEVFDAKKVLDGLVAKYASRNMAHIMTPRHLKQMGTLGGGNHFIEIAYDASDGGEEALSGNQSGETHQNDAPHSYTSEQNHSPESDIYILIHSGSRNIGKRTAEFYDELASQESKVKRNDLAYLDLKKEQGQNYLKDMQLCLEYAKCNRIYMMKIIERIIYEEVNCTLDWQSVINIHHNFCNQELVTYVHSGEVKREYMYVTRKGATSSKKNQLGVIPGNMKVGSYIVRGKGNKLSYSSCSHGCGRVLSRTHAKKIINQTDFVNIMRGVRCDTNARIRDEAPQAYKNLGQVLRNQDSLVHVVRRLLPLINVKGE | not soluble
5 | PESPGGRGIKPDTCPAPGPRSPLQLPLAPDAESGSSGRRPGEPRDPLKLQQLQNQIRLEQEAGARQPPPAPRSAPPSPPFPPPPAFPELAACTPPASPEPMSALASRSAPAMQSSGSFNYARPKQFIAAQNLGPASGHGTPASSPSSSSLPSPMSPTPRQFGRAPVPPFAQPFGAEPEAPWGSSSPSPPPPPPPVFSPTAAFPVPDVFPLPPPPPPLPSPGQASHCSSPATRFGHGQTPAAFLSALLPSQPPPAAVNALGLPKGVTPAGFPKKASRTARIASDEEIQGTKDAVIQDLERKLRFKEDLLNNGQPRLTYEERMARRLLGADSATVFNIQEPEEETANQEYKVSSCEQRLISEIEYRLERSPVDESGDEVQYGDVPVENGMAPFFEMKLKHYKIFEGMPVTFTCRVAGNPKPKIYWFKDGKQISPKSDHYTIQRDLDGTCSLHTTASTLDDDGNYTIMAANPQGRISCTGRLMVQAVNQRGRSPRSPSGHPHVRRPRSRSRDSGDENEPIQERFFRPHFLQAPGDLTVQEGKLCRMDCKVSGLPTPDLSWQLDGKPVRPDSAHKMLVRENGVHSLIIEPVTSRDAGIYTCIATNRAGQNSFSLELVVAAKEAHKPPVFIEKLQNTGVADGYPVRLECRVLGVPPPQIFWKKENESLTHSTDRVSMHQDNHGYICLLIQGATKEDAGWYTVSAKNEAGIVSCTARLDVYTQWHQQSQSTKPKKVRPSASRYAALSDQGLDIKAAFQPEANPSHLTLNTALVESEDL | soluble
6 | MAFNSALFDGMVIFSEVVTSGSFTQAALNSGHSTSYISKEIGKLEERLGVRLLHRTTRTLRLTPEGELYFQQCQQLIEDAQMAENSITGQQEKPKGRLKVSCPVGFALSRLRPILGKFTDLYPDIILELDLNDKKIDIVAEGFDMAIRASHQLEDSSLISRRFLRSKAITIASPGYLKKHGAPLYPHDLSSHKTIGYAYVKQGAIWDFFDKNKQPFSVQLNSQVITNNSFMALSLCLAEQGITRIPHFHLTDELETGKLVELFADYPKLTIDIFMVYPSRKHMSAKVRCFMDFISEHLGD | not soluble
7 | MSLDIQPFSMPLSSPLSTADGTIESRRGFLVRTEIDGVAGVGEAAPLPGWTESYDACQAALCGVEKPKQALEDNVFDDTPAARHAVSLAVADAAARRAGVPLYRRLGAGERVESVPVNATVGDGSPSATAEAVADAAAAGFPAAKVKVGNRSLDADIERIEAVRQRYPDIELRVDANGAWEFETAREAVESMSALGVAVLEQPLPAEALDNHRRLRGHGIDIALDEGLLRHGVDAAIAAEAADCLVCKPMALGGVDIARSAAERARADGWDVIVTTTIDGVVARAAAVHLAASVPDVRPCGLATGGRLASDVGPDAAPVSDGTAAVPQGKGNIPPLEGHHHHHH | soluble
8 | MASGENLAPRDAKVISVILRSLGIEECEPKVIIQLLEFAYRYTTDVLEDALLFAKHTGRTHITTSDVKLALQTKVGRHFVPPPPRQYLSEISTMVNSKPLTIPDGENLIRVPPSSSALLNLDYEVLRKDSDKKRRIY | not soluble
9 | MSNDETVEKVTQQVSELKSTDVKEQVVTPWDVEGGVDEQGRAQNIDYDKLIKQFGTKPVNEETLKRFKQVTGREPHHFLRKGLFFSERDFTKILDLYEQGKPFFLYTGRGPSSDSMHLGHMIPFVFTKWLQEVFDVPLVIELTDDEKFLFKHKLTINDVKNFARENAKDIIAVGFDPKNTFIFSDLQYMGGAFYETVVRVSRQITGSTAKAVFGFNDSDCIGKFHFASIQIATAFPSSFPNVLGLPDKTPCLIPCAIDQDPYFRVCRDVADKLKYSKPALLHSRFFPALQGSTTKMSASDDTTAIFMTDTPKQIQKKINKYAFSGGQVSADLHRELGGNPDVDVAYQYLSFFKDDDVFLKECYDKYKSGELLSGEMKKLCIETLQEFVKAFQERRAQVDEETLDKFMVPHKLVWGEKERLVAPKPKTKQEKKHHHHHH | soluble
10 | MRISKMLVTELNIYPLKSARGIALKESAVSAEGLPGDRRAMLTDPSGHFITQRELPAIATVLARHEDGGMALSRERSGEIFARPSGQRMDVAVWKSIVSANIADDETNDTLSAWLGREVKLVFFDDAAKRIASLEWTGNETPVTFADGYQILVTTTASLAALNDNMRGNGEDAVGMERFRPNIVLETEEAWAEDRWAAIEIGGIRFDLVKPCARCIMTTQDQMTGSRDVPSPMKAMGRIRMSGDRRVPGPLFGWNVTPRGEGRLSVGDVARVVEERPEGWAIKRR | soluble
11 | MVSYKLTYFNGRGAGEVSRQIFAYAGQQYEDNRVTQEQWPALKETCAAPFGQLPFLEVDGKKLAQSHAIARFLAREFKLNGKTAWEEAQVNSLADQYKDYSSEARPYFYAVMGFGPGDVETLKKDIFLPAFEKFYGFLVNFLKASGSGFLVGDSLTWIDLAIAQHSADLIAKGGDFSKFPELKAHAEKIQAIPQIKKWIETRPVTPF | soluble
12 | MRLEYRLNDETKGYPALWNYANISNSEIIARMTCEYFIKEKNTYVVTATSVDPDGTAVIYIQKEVFANDPSDPTYSYIGFEIRELSETSSNIVDSQDVWNYEEILPSLHSDIIYIQRDGMSMEFSLDSREIDEDRKCYIYYGNFTGESR | soluble
13 | MTTKFVVGYDGSAASRRALDFAMERAKAGGASIIVAHVLEWSPYSFLTPTEIEERHKRRAEEMARAETAILAPLKAELAGSGVEIETAIRYGQVADTLCDIATKSGAAQIFIARQGESGLAARVFGSVAGTLAQYAPVPCTIVP | not soluble
14 | MGSDKIHHHHHHMMRPALRSTSTPKSPLVTCVSHDLTVSAPQGVFLSGLNTKFRAYVGGFGSGKTYVGCLDLGLFAGQHPKTVQGYFAPTYRDIRDTFWPTVDEAAHSLGFTTKVKSADKEVEFYRGRSYYGTTICRSMDDPGGIVGFKIARALVDEIDILSKDKAQAAWRKIIARMRLVLPGVVNGIGVTTTPEGFRFVYDSFKREPKSNYSMVQASTYENEAFLPPDYISTLLEDYPEELIKAYLMGEFVNLTSGTVYRSYDRLRHRSTQSIQPREPLHIGQDFNVGNMASVVFVQRGEDWHAVDELQGLQDTPHLIEVLCDRYEGHHLTIYPDASGSSRKTVNASTSDIELLRKAGHAIRAPSTNPAVKDRILAVNTAFENGRLFVNALRCKAYAEALEQQAYDKNGEPDKSAGLDHHPDAGGYFVHQKMPVVKPTFTRQELRL | not soluble
15 | MAGDPMRRTLYRLMIELTNGRFTSYILRKFAQSRLSSIIIPSYAKVFQINQDEMEKGLKEYRTLHELFTRKLKEGKRSIDTDASSIVSPVDGVFADHGPIEDTKTFDIKGKRYSIVDMLGNEERATRYAGGTYMVIYLSPSHYHRIHSPLSGSVTERFVLGRKSYPVNAAGMEYGKEPLSKNYRSVTEVSSDGEHMALVKVGAMFVNSIELLHERDTVQKGEEMAYFTFGSTVVLLFEKDMIEVVQELKSGQELRLGEKIATRLAHKLEHHHHHH | not soluble
16 | MTKQTKYVQTVIDELATKGVEALDAMANFTQEQVDHIVHQAAIAALDKHMYLAKLAVDETGRGIYEDKAIKNMYASEYIWNSIKYDKPVGVIAEDKEQGLVSIAEPVGVICGVTPTTNPTSITIFKALIAL | not soluble
17 | SDWKLEGSTQKVESPVLQGQEGILEETGEDGLPEGFQLLQIDAEGECQEGEILATGSTAWCSKNVQRKQRHWEKIVAAKKSKRKQEKERRKANRAENPGICPQHSKRFLRALTKDKLLEAKHSGPRLCIDLSMTHYMSKKELSRLAGQIRRLYGSNKKADRPFWICLTGFTTDSPLYEECVRMNDGFSSYLLDITEEDCFSLFPLETLVYLTPDSEHALEDVDLNKVYILGGLVDESIQKKVTFQKAREYSVKTARLPIQEYMVRNQNGKNYHSEILAINQVFDILSTYLETHNWPEALKKGVSSGKGYILRNSVE | soluble
18 | MAHHHHHHMRVTHHNNNNERSADRPPPSPHPHSQYYRQRYSLFRKTHRHAALTCSTRSSSSSPAVQQLRVIHFFHSLRHATATQYSHTCSMRCILFSSLYLWRHRKVLQPAASWCWKKYGAATVRVSVWLYSRFNSSSTNGLAAAIPAGSFSSSPQNRGRLTGPSNGVTPCPMRSCAPPSHVPLRSRRRTQHPHAIAGKIGPST | soluble
19 | SLAWHQRKHTQATPLRDIAADYTLQDFKLVALDTQTGKESLTLLGQQMQHNQTDSSAEVTAPLFMIPDQAGQHWTLQAQTGWINKDGTLLRLRHDVKGDSPTDLGQLPTTFRTQSLDIYPNHHLAKTTDAVTITHQGIIQTGVGFEVNTKTQQYKFNSKVNTRYEPSAAR | soluble
20 | MAHHHHHHMGTLEAQTQGPGSMSFFLTTPAAIDLGVNIDHVATLRNARGTAYPDPVRAALAAEDAGADAITLHLREDRRHIVDADVRTLRPRVKTRMNLECAVTPEMLDIACEIRPHDACLVPEKRSELTTEGGLDVVGHFDAVRAACKQLADAGVRVSLFIDPDEAQIRAAHETGAPVIELHTGRYADAHDAAEQQREFERIATGVDAGIALGLKVNAGHGLHYTNVQAIAALPGIAELNIGHAIVAHAVFVGWDNAVREMKAIMVAARVAALHGGR | soluble
